Results on two molecules are retold here after doi:10.1101/2021.07.08.451529 (bioRxiv, 2021).

Data set [1] addresses recombinant C. elegans mitochondrial malate dehydrogenase MDH-2 (F20H11.3), mitochondrial import sequence removed (C. elegans). As to the kind of experiment: SEC. A general note: In gel filtration, larger molecules generally elute earlier.
The data set “SEC” concerns the molecule itself. Nature of the data set: SEC.

A word on the stoichiometry N: it is the number of molecules, sites or subunits per partner or assembly. Turning to “recombinant C. elegans mitochondrial malate dehydrogenase MDH-2 (F20H11.3), mitochondrial import sequence removed (enzyme)”, the stoichiometry N in data set [1] stood at 2.

B1: recombinant C. elegans cytoplasmic malate dehydrogenase MDH-1 (F46E10.10) (enzyme)
chain: MSAPLRVLVTGAAGQIGYSIVIRIADGTVFGKEQPVELVLLDVPQCSNILEGVVFELQDCALPTLFSVVAVTDEKSAFTGIDYAFLVGAMPRREGMERKDLLAANVKIFKSQGKALAEYAKPTTKVIVVGNPANTNAFIAAKYAAGKIPAKNFSAMTRLDHNRALAQLALKTGTTIGNVKNVIIWGNHSGTQFPDVTHATVNKNGTETDAYAAVGDNAFLQGPFIATVQKRGGVIIEKRKLSSAMSAAKAACDHIHDWHFGTKAGQFVSMAVPSDGSYGIPQGLIFSFPVTIEGGEWKIVQGLSFDDFAKGKIAATTKELEEERDDALKACDDANIA
Turning to B1, the “stoichiometry N” value in the data set “SEC” is 2.
